Drawing on patent publication US20140363428A1 (Chugai, published 2014), this text covers Kd for six molecules.

To fix the notation:
B1: Fv-4-F1340 (antibody)
heavy: QVQLQESGPGLVKPSETLSLTCAVSGHSISHDHAWSWVRQPPGEGLEWIGFISYSGITNYNPSLQGRVTISRDNSKNTLYLQMNSLRAEDTAVYYCARSLARTTAMDYWGEGTLVTVSSASTKGPSVFPLAPSSKSTSGGTAALGCLVKDYFPEPVTVSWNSGALTSGVHTFPAVLQSSGLYSLSSVVTVPSSSLGTQTYICNVNHKPSNTKVDKKVEPKSCDKTHTCPPCPAPELRGGPKVFLFPPKPKDTLYITREPEVTCVVVDVSHEDPEVKFNWYVDGVEVHNAKTKPREEQYNSTYRVVSVLTVLHQDWLNGKEYKCKVSNKALPAPIEKTISKAKGQPREPQVYTLPPSRDELTKNQVSLTCLVKGFYPSDIAVEWESNGQPENNYKTTPPVLDSDGSFFLYSKLTVDKSRWQQGNVFSCSVMHEALHYHVTKKELSLSP
light: DIQMTQSPSSLSASVGDSVTITCQASTDISSHLNWYQQKPGKAPELLIYYGSHLLSGVPSRFSGSGSGTDFTFTISSLEAEDAATYYCGQGNRLPYTFGQGTKVEIERTVAAPSVFIFPPSDEQLKSGTASVVCLLNNFYPREAKVQWKVDNALQSGNSQESVTEQDSKDSTYSLSSTLTLSKADYEKHKVYACEVTHQGLSSPVTKSFNRGEC
B2: Fv-4-F1321 (antibody)
heavy: QVQLQESGPGLVKPSETLSLTCAVSGHSISHDHAWSWVRQPPGEGLEWIGFISYSGITNYNPSLQGRVTISRDNSKNTLYLQMNSLRAEDTAVYYCARSLARTTAMDYWGEGTLVTVSSASTKGPSVFPLAPSSKSTSGGTAALGCLVKDYFPEPVTVSWNSGALTSGVHTFPAVLQSSGLYSLSSVVTVPSSSLGTQTYICNVNHKPSNTKVDKKVEPKSCDKTHTCPPCPAPELRGGPKVFLFPPKPKDTLYITRTPEVTCVVVDVSHEDPEVKFNWYVDGVEVHNAKTKPREEQYNSTYRVVSVLTVLHQDWLNGKEYKCKVSNKALPAPIEKTISKAKGQPREPQVYTLPPSRDELTKNQVSLTCLVKGFYPSDIAVEWESNGQPENNYKTTPPVLDSDGSFFLYSKLTVDKSRWQQGNVFSCSVMHEALHYHVTKKELSLSP
light: DIQMTQSPSSLSASVGDSVTITCQASTDISSHLNWYQQKPGKAPELLIYYGSHLLSGVPSRFSGSGSGTDFTFTISSLEAEDAATYYCGQGNRLPYTFGQGTKVEIERTVAAPSVFIFPPSDEQLKSGTASVVCLLNNFYPREAKVQWKVDNALQSGNSQESVTEQDSKDSTYSLSSTLTLSKADYEKHKVYACEVTHQGLSSPVTKSFNRGEC
B3: Fv-4-F1291 (antibody, human IgG1, kappa)
heavy: QVQLQESGPGLVKPSETLSLTCAVSGHSISHDHAWSWVRQPPGEGLEWIGFISYSGITNYNPSLQGRVTISRDNSKNTLYLQMNSLRAEDTAVYYCARSLARTTAMDYWGEGTLVTVSSASTKGPSVFPLAPSSKSTSGGTAALGCLVKDYFPEPVTVSWNSGALTSGVHTFPAVLQSSGLYSLSSVVTVPSSSLGTQTYICNVNHKPSNTKVDKKVEPKSCDKTHTCPPCPAPELRGGPKVFLFPPKPKDTLYISRTPEVTCVVVDVSHEDPEVKFNWYVDGVEVHNAKTKPREEQYNSTYRVVSVLTVLHQDWLNGKEYKCKVSNKALPAPIEKTISKAKGQPREPQVYTLPPSRDELTKNQVSLTCLVKGFYPSDIAVEWESNGQPENNYKTTPPVLDSDGSFFLYSKLTVDKSRWQQGNVFSCSVMHEALDYHVTQKSLSLSP
light: DIQMTQSPSSLSASVGDSVTITCQASTDISSHLNWYQQKPGKAPELLIYYGSHLLSGVPSRFSGSGSGTDFTFTISSLEAEDAATYYCGQGNRLPYTFGQGTKVEIERTVAAPSVFIFPPSDEQLKSGTASVVCLLNNFYPREAKVQWKVDNALQSGNSQESVTEQDSKDSTYSLSSTLTLSKADYEKHKVYACEVTHQGLSSPVTKSFNRGEC
B4: Fv-4-F1323 (antibody)
heavy: QVQLQESGPGLVKPSETLSLTCAVSGHSISHDHAWSWVRQPPGEGLEWIGFISYSGITNYNPSLQGRVTISRDNSKNTLYLQMNSLRAEDTAVYYCARSLARTTAMDYWGEGTLVTVSSASTKGPSVFPLAPSSKSTSGGTAALGCLVKDYFPEPVTVSWNSGALTSGVHTFPAVLQSSGLYSLSSVVTVPSSSLGTQTYICNVNHKPSNTKVDKKVEPKSCDKTHTCPPCPAPELRGGPKVFLFPPKPKDTLYITRTPEVTCVVVDVSHEDPEVKFNWYVDGVEVHNAKTKPREEQYNSTYRVVSVLTVLHQDWLNGKEYKCKVSNKALPAPIEKTISKAKGQPREPQVYTLPPSRDELTKNQVSLTCLVKGFYPSDIAVEWESNGQPENNYKTTPPVLDSDGSFFLYSKLTVDKSRWQQGNVFSCSVMHEALDYHVTKKELSLSP
light: DIQMTQSPSSLSASVGDSVTITCQASTDISSHLNWYQQKPGKAPELLIYYGSHLLSGVPSRFSGSGSGTDFTFTISSLEAEDAATYYCGQGNRLPYTFGQGTKVEIERTVAAPSVFIFPPSDEQLKSGTASVVCLLNNFYPREAKVQWKVDNALQSGNSQESVTEQDSKDSTYSLSSTLTLSKADYEKHKVYACEVTHQGLSSPVTKSFNRGEC
B5: Fv-4-F1166 (antibody)
heavy: QVQLQESGPGLVKPSETLSLTCAVSGHSISHDHAWSWVRQPPGEGLEWIGFISYSGITNYNPSLQGRVTISRDNSKNTLYLQMNSLRAEDTAVYYCARSLARTTAMDYWGEGTLVTVSSASTKGPSVFPLAPSSKSTSGGTAALGCLVKDYFPEPVTVSWNSGALTSGVHTFPAVLQSSGLYSLSSVVTVPSSSLGTQTYICNVNHKPSNTKVDKKVEPKSCDKTHTCPPCPAPELLGGPSVFLFPPKPKDTLYITREPEVTCVVVDVSHEDPEVKFNWYVDGVEVHNAKTKPREEQYNSTYRVVSVLTVLHQDWLNGKEYKCKVSNKALPAPIEKTISKAKGQPREPQVYTLPPSRDELTKNQVSLTCLVKGFYPSDIAVEWESNGQPENNYKTTPPVLDSDGSFFLYSKLTVDKSRWQQGNVFSCSVMHEALHNHYTRKELSLSP
light: DIQMTQSPSSLSASVGDSVTITCQASTDISSHLNWYQQKPGKAPELLIYYGSHLLSGVPSRFSGSGSGTDFTFTISSLEAEDAATYYCGQGNRLPYTFGQGTKVEIERTVAAPSVFIFPPSDEQLKSGTASVVCLLNNFYPREAKVQWKVDNALQSGNSQESVTEQDSKDSTYSLSSTLTLSKADYEKHKVYACEVTHQGLSSPVTKSFNRGEC
B6: Fv-4-F1167 (antibody, human IgG1, kappa)
heavy: QVQLQESGPGLVKPSETLSLTCAVSGHSISHDHAWSWVRQPPGEGLEWIGFISYSGITNYNPSLQGRVTISRDNSKNTLYLQMNSLRAEDTAVYYCARSLARTTAMDYWGEGTLVTVSSASTKGPSVFPLAPSSKSTSGGTAALGCLVKDYFPEPVTVSWNSGALTSGVHTFPAVLQSSGLYSLSSVVTVPSSSLGTQTYICNVNHKPSNTKVDKKVEPKSCDKTHTCPPCPAPELLGGPSVFLFPPKPKDTLYITREPEVTCVVVDVSHEDPEVKFNWYVDGVEVHNAKTKPREEQYNSTYRVVSVLTVLHQDWLNGKEYKCKVSNKALPAPIEKTISKAKGQPREPQVYTLPPSRDELTKNQVSLTCLVKGFYPSDIAVEWESNGQPENNYKTTPPVLDSDGSFFLYSKLTVDKSRWQQGNVFNCSVMHEALHNHYTQKSLSLSP
light: DIQMTQSPSSLSASVGDSVTITCQASTDISSHLNWYQQKPGKAPELLIYYGSHLLSGVPSRFSGSGSGTDFTFTISSLEAEDAATYYCGQGNRLPYTFGQGTKVEIERTVAAPSVFIFPPSDEQLKSGTASVVCLLNNFYPREAKVQWKVDNALQSGNSQESVTEQDSKDSTYSLSSTLTLSKADYEKHKVYACEVTHQGLSSPVTKSFNRGEC

Broadly, the Kd is the equilibrium constant for the complex coming apart. Low values mean a tighter complex, high ones a looser complex.

The target in one experiment is T1, soluble human FcRn (human, UniProt P55899 24-297; P61769 21-119).
T1 construct: Heterodimer of alpha chain and beta2-microglobulin; also called hFcRn
T1 sequence (P55899 24-297 limits assumed, chain 1 of 2): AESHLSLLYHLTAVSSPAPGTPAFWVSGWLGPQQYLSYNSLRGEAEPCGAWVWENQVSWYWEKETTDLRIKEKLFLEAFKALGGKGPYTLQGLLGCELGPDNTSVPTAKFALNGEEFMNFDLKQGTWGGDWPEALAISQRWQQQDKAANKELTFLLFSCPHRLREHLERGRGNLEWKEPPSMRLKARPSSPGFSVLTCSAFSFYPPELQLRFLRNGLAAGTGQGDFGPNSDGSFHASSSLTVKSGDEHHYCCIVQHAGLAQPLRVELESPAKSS
T1 sequence (P61769 21-119 limits assumed, chain 2 of 2): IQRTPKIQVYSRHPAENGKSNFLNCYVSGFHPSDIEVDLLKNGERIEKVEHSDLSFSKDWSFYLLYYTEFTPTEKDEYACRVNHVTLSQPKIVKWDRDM
Description: SPR (Biacore), pH 7.0. For orientation: In SPR one partner is held on a chip, and binding of the other changes the refractive index at the surface.
For the molecule B1, binding was put at a Kd of 56 nM.

The molecule B2 returned a dissociation constant (Kd) of 100 nM.

Regarding B3, the Kd was determined as 150 nM.

For the molecule B4, the Kd amounted to 150 nM.

The next experiment deals with T1, soluble human FcRn. Kind of experiment: SPR (Biacore), pH 6.0.
B5: the Kd was 210 nM.

B6 yielded an equilibrium dissociation constant (Kd) of 250 nM.
